# In US20260242419A1, “A CYCLIC PEPTIDE FOR TRAPPING INTERLEUKIN-1 BETA” (Merck Sharp & Dohme LLC, priority 2023, published 2026):
# Starred links: 1 amine or outer side, 2 acyl side, 3 side chain; linkers in the order of their positions; H or OH if unused. Non-standard residues stand in square brackets, D forms with d. dProc3Bn4Pyrim2NMe = (2R,3S)-3-[[4-[2-(methylamino)pyrimidin-5-yl]phenyl]methyl]pyrrolidine-2-carboxylic acid, CNc1ncc(-c2ccc(C[C@H]3CCN([*:1])[C@H]3C(=O)[*:2])cc2)cn1; dProc3Bn4Pyrim2NH2 = (2R,3S)-3-[[4-(2-aminopyrimidin-5-yl)phenyl]methyl]pyrrolidine-2-carboxylic acid, Nc1ncc(-c2ccc(C[C@H]3CCN([*:1])[C@H]3C(=O)[*:2])cc2)cn1; dProc3Bn4Pyraz5NH2 = (2R,3S)-3-[[4-(5-aminopyrazin-2-yl)phenyl]methyl]pyrrolidine-2-carboxylic acid, Nc1cnc(-c2ccc(C[C@H]3CCN([*:1])[C@H]3C(=O)[*:2])cc2)cn1; dProc3Bn4Pyrim = (2R,3S)-3-[(4-pyrimidin-5-ylphenyl)methyl]pyrrolidine-2-carboxylic acid, O=C([C@H]1[C@@H](Cc2ccc(-c3cncnc3)cc2)CCN1[*:1])[*:2]; dProc3Bn4Pyrz = (2R,3S)-3-[(4-pyridazin-4-ylphenyl)methyl]pyrrolidine-2-carboxylic acid, O=C([C@H]1[C@@H](Cc2ccc(-c3ccnnc3)cc2)CCN1[*:1])[*:2]; dProc3Bn4Pyr3 = (2R,3S)-3-[[4-(3-pyridyl)phenyl]methyl]pyrrolidine-2-carboxylic acid, O=C([C@H]1[C@@H](Cc2ccc(-c3cccnc3)cc2)CCN1[*:1])[*:2]; dProc3Bn4Pyr4 = (2R,3S)-3-[[4-(4-pyridyl)phenyl]methyl]pyrrolidine-2-carboxylic acid, O=C([C@H]1[C@@H](Cc2ccc(-c3ccncc3)cc2)CCN1[*:1])[*:2]; TyrEtNAc = (2S)-3-[4-(2-acetamidoethoxy)phenyl]-2-amino-propanoic acid, CC(=O)NCCOc1ccc(C[C@H](N[*:1])C(=O)[*:2])cc1; dPro(4R-(4-pyridylmethyl)) = O=C(O)[C@H]1C[C@@H](Cc2ccncc2)CN1; dPro(3S-(4-Br-benzyl)) = O=C(O)[C@@H]1NCC[C@@H]1Cc1ccc(Br)cc1; Trp(βS-Me,4-F) = C[C@@H](c1c[nH]c2cccc(F)c12)[C@H](N)C(=O)O; Bip(4'-COOH) = N[C@@H](Cc1ccc(-c2ccc(C(=O)O)cc2)cc1)C(=O)O; Ala(1-bicyclo(1.1.1)pentyl) = N[C@@H](CC12CC(C1)C2)C(=O)O; dPro(4R-Bzl(4-F)) = O=C(O)[C@H]1C[C@@H](Cc2ccc(F)cc2)CN1; Ala(pyrimidin-5-yl) = N[C@@H](Cc1cncnc1)C(=O)O; Phe(4-COOH) = N[C@@H](Cc1ccc(C(=O)O)cc1)C(=O)O; Pro(cis-4-F) = O=C(O)[C@@H]1C[C@H](F)CN1; 4Pal = N[C@@H](Cc1ccncc1)C(=O)O; Cit = NC(=O)NCCC[C@H](N)C(=O)O; Dab = NCC[C@H](N)C(=O)O; Aib = CC(C)(N)C(=O)O
# B1: SEQ ID NO: 52 (peptide)
# peptide: cyclo([Bip(4'-COOH)][4Pal][Phe(4-COOH)]G[Pro(cis-4-F)][Trp(βS-Me,4-F)][Aib]EW[Aib][Cit]Q[Dab]G[dPro(4R-Bzl(4-F))])
# SMILES: C[C@@H](c1c[nH]c2cccc(F)c12)[C@@H]1NC(=O)[C@@H]2C[C@H](F)CN2C(=O)CNC(=O)[C@H](Cc2ccc(C(=O)O)cc2)NC(=O)[C@H](Cc2ccncc2)NC(=O)[C@H](Cc2ccc(-c3ccc(C(=O)O)cc3)cc2)NC(=O)[C@H]2C[C@@H](Cc3ccc(F)cc3)CN2C(=O)CNC(=O)[C@H](CCN)NC(=O)[C@H](CCC(N)=O)NC(=O)[C@H](CCCNC(N)=O)NC(=O)C(C)(C)NC(=O)[C@H](Cc2c[nH]c3ccccc23)NC(=O)[C@H](CCC(=O)O)NC(=O)C(C)(C)NC1=O
# B2: SEQ ID NO: 56 (peptide)
# peptide: cyclo([Bip(4'-COOH)][4Pal][Phe(4-COOH)]G[Pro(cis-4-F)][Trp(βS-Me,4-F)][Aib]EW[Aib][Ala(pyrimidin-5-yl)]Q[Dab]G[dProc3Bn4Pyr3])
# SMILES: C[C@@H](c1c[nH]c2cccc(F)c12)[C@@H]1NC(=O)[C@@H]2C[C@H](F)CN2C(=O)CNC(=O)[C@H](Cc2ccc(C(=O)O)cc2)NC(=O)[C@H](Cc2ccncc2)NC(=O)[C@H](Cc2ccc(-c3ccc(C(=O)O)cc3)cc2)NC(=O)[C@H]2[C@@H](Cc3ccc(-c4cccnc4)cc3)CCN2C(=O)CNC(=O)[C@H](CCN)NC(=O)[C@H](CCC(N)=O)NC(=O)[C@H](Cc2cncnc2)NC(=O)C(C)(C)NC(=O)[C@H](Cc2c[nH]c3ccccc23)NC(=O)[C@H](CCC(=O)O)NC(=O)C(C)(C)NC1=O
# B3: SEQ ID NO: 5 (peptide)
# peptide: cyclo([Bip(4'-COOH)][4Pal][Phe(4-COOH)]G[Pro(cis-4-F)][Trp(βS-Me,4-F)][Aib]SW[Aib]SQ[Dab]G[dPro(4R-Bzl(4-F))])
# SMILES: C[C@@H](c1c[nH]c2cccc(F)c12)[C@@H]1NC(=O)[C@@H]2C[C@H](F)CN2C(=O)CNC(=O)[C@H](Cc2ccc(C(=O)O)cc2)NC(=O)[C@H](Cc2ccncc2)NC(=O)[C@H](Cc2ccc(-c3ccc(C(=O)O)cc3)cc2)NC(=O)[C@H]2C[C@@H](Cc3ccc(F)cc3)CN2C(=O)CNC(=O)[C@H](CCN)NC(=O)[C@H](CCC(N)=O)NC(=O)[C@H](CO)NC(=O)C(C)(C)NC(=O)[C@H](Cc2c[nH]c3ccccc23)NC(=O)[C@H](CO)NC(=O)C(C)(C)NC1=O
# B4: SEQ ID NO: 59 (peptide)
# peptide: cyclo([Bip(4'-COOH)][4Pal][Phe(4-COOH)]G[Pro(cis-4-F)][Trp(βS-Me,4-F)][Aib]EW[Aib][Ala(pyrimidin-5-yl)]Q[Dab]G[dProc3Bn4Pyrim2NH2])
# SMILES: C[C@@H](c1c[nH]c2cccc(F)c12)[C@@H]1NC(=O)[C@@H]2C[C@H](F)CN2C(=O)CNC(=O)[C@H](Cc2ccc(C(=O)O)cc2)NC(=O)[C@H](Cc2ccncc2)NC(=O)[C@H](Cc2ccc(-c3ccc(C(=O)O)cc3)cc2)NC(=O)[C@H]2[C@@H](Cc3ccc(-c4cnc(N)nc4)cc3)CCN2C(=O)CNC(=O)[C@H](CCN)NC(=O)[C@H](CCC(N)=O)NC(=O)[C@H](Cc2cncnc2)NC(=O)C(C)(C)NC(=O)[C@H](Cc2c[nH]c3ccccc23)NC(=O)[C@H](CCC(=O)O)NC(=O)C(C)(C)NC1=O
# B5: SEQ ID NO: 53 (peptide)
# peptide: cyclo([Bip(4'-COOH)][4Pal][Phe(4-COOH)]G[Pro(cis-4-F)][Trp(βS-Me,4-F)][Aib]EW[Aib][Ala(pyrimidin-5-yl)]Q[Dab]G[dProc3Bn4Pyrim])
# SMILES: C[C@@H](c1c[nH]c2cccc(F)c12)[C@@H]1NC(=O)[C@@H]2C[C@H](F)CN2C(=O)CNC(=O)[C@H](Cc2ccc(C(=O)O)cc2)NC(=O)[C@H](Cc2ccncc2)NC(=O)[C@H](Cc2ccc(-c3ccc(C(=O)O)cc3)cc2)NC(=O)[C@H]2[C@@H](Cc3ccc(-c4cncnc4)cc3)CCN2C(=O)CNC(=O)[C@H](CCN)NC(=O)[C@H](CCC(N)=O)NC(=O)[C@H](Cc2cncnc2)NC(=O)C(C)(C)NC(=O)[C@H](Cc2c[nH]c3ccccc23)NC(=O)[C@H](CCC(=O)O)NC(=O)C(C)(C)NC1=O
# B6: SEQ ID NO: 58 (peptide)
# peptide: cyclo([Bip(4'-COOH)][4Pal][Phe(4-COOH)]G[Pro(cis-4-F)][Trp(βS-Me,4-F)][Aib]EW[Aib][Ala(pyrimidin-5-yl)]Q[Dab]G[dProc3Bn4Pyrz])
# SMILES: C[C@@H](c1c[nH]c2cccc(F)c12)[C@@H]1NC(=O)[C@@H]2C[C@H](F)CN2C(=O)CNC(=O)[C@H](Cc2ccc(C(=O)O)cc2)NC(=O)[C@H](Cc2ccncc2)NC(=O)[C@H](Cc2ccc(-c3ccc(C(=O)O)cc3)cc2)NC(=O)[C@H]2[C@@H](Cc3ccc(-c4ccnnc4)cc3)CCN2C(=O)CNC(=O)[C@H](CCN)NC(=O)[C@H](CCC(N)=O)NC(=O)[C@H](Cc2cncnc2)NC(=O)C(C)(C)NC(=O)[C@H](Cc2c[nH]c3ccccc23)NC(=O)[C@H](CCC(=O)O)NC(=O)C(C)(C)NC1=O
# B7: SEQ ID NO: 50 (peptide)
# peptide: cyclo([TyrEtNAc][Ala(1-bicyclo(1.1.1)pentyl)][Phe(4-COOH)]G[Pro(cis-4-F)][Trp(βS-Me,4-F)][Aib]EW[Aib][Ala(pyrimidin-5-yl)]Q[Dab]G[dPro(4R-(4-pyridylmethyl))])
# SMILES: CC(=O)NCCOc1ccc(C[C@@H]2NC(=O)[C@H]3C[C@@H](Cc4ccncc4)CN3C(=O)CNC(=O)[C@H](CCN)NC(=O)[C@H](CCC(N)=O)NC(=O)[C@H](Cc3cncnc3)NC(=O)C(C)(C)NC(=O)[C@H](Cc3c[nH]c4ccccc34)NC(=O)[C@H](CCC(=O)O)NC(=O)C(C)(C)NC(=O)[C@H]([C@@H](C)c3c[nH]c4cccc(F)c34)NC(=O)[C@@H]3C[C@H](F)CN3C(=O)CNC(=O)[C@H](Cc3ccc(C(=O)O)cc3)NC(=O)[C@H](CC34CC(C3)C4)NC2=O)cc1
# B8: SEQ ID NO: 49 (peptide)
# peptide: cyclo([TyrEtNAc][4Pal][Phe(4-COOH)]G[Pro(cis-4-F)][Trp(βS-Me,4-F)][Aib]EW[Aib][Ala(pyrimidin-5-yl)]Q[Dab]G[dPro(4R-(4-pyridylmethyl))])
# SMILES: CC(=O)NCCOc1ccc(C[C@@H]2NC(=O)[C@H]3C[C@@H](Cc4ccncc4)CN3C(=O)CNC(=O)[C@H](CCN)NC(=O)[C@H](CCC(N)=O)NC(=O)[C@H](Cc3cncnc3)NC(=O)C(C)(C)NC(=O)[C@H](Cc3c[nH]c4ccccc34)NC(=O)[C@H](CCC(=O)O)NC(=O)C(C)(C)NC(=O)[C@H]([C@@H](C)c3c[nH]c4cccc(F)c34)NC(=O)[C@@H]3C[C@H](F)CN3C(=O)CNC(=O)[C@H](Cc3ccc(C(=O)O)cc3)NC(=O)[C@H](Cc3ccncc3)NC2=O)cc1
# B9: SEQ ID NO: 57 (peptide)
# peptide: cyclo([Bip(4'-COOH)][4Pal][Phe(4-COOH)]G[Pro(cis-4-F)][Trp(βS-Me,4-F)][Aib]EW[Aib][Ala(pyrimidin-5-yl)]Q[Dab]G[dProc3Bn4Pyraz5NH2])
# SMILES: C[C@@H](c1c[nH]c2cccc(F)c12)[C@@H]1NC(=O)[C@@H]2C[C@H](F)CN2C(=O)CNC(=O)[C@H](Cc2ccc(C(=O)O)cc2)NC(=O)[C@H](Cc2ccncc2)NC(=O)[C@H](Cc2ccc(-c3ccc(C(=O)O)cc3)cc2)NC(=O)[C@H]2[C@@H](Cc3ccc(-c4cnc(N)cn4)cc3)CCN2C(=O)CNC(=O)[C@H](CCN)NC(=O)[C@H](CCC(N)=O)NC(=O)[C@H](Cc2cncnc2)NC(=O)C(C)(C)NC(=O)[C@H](Cc2c[nH]c3ccccc23)NC(=O)[C@H](CCC(=O)O)NC(=O)C(C)(C)NC1=O
# B10: SEQ ID NO: 54 (peptide)
# peptide: cyclo([Bip(4'-COOH)][4Pal][Phe(4-COOH)]G[Pro(cis-4-F)][Trp(βS-Me,4-F)][Aib]EW[Aib][Ala(pyrimidin-5-yl)]Q[Dab]G[dProc3Bn4Pyrim2NMe])
# SMILES: CNc1ncc(-c2ccc(C[C@H]3CCN4C(=O)CNC(=O)[C@H](CCN)NC(=O)[C@H](CCC(N)=O)NC(=O)[C@H](Cc5cncnc5)NC(=O)C(C)(C)NC(=O)[C@H](Cc5c[nH]c6ccccc56)NC(=O)[C@H](CCC(=O)O)NC(=O)C(C)(C)NC(=O)[C@H]([C@@H](C)c5c[nH]c6cccc(F)c56)NC(=O)[C@@H]5C[C@H](F)CN5C(=O)CNC(=O)[C@H](Cc5ccc(C(=O)O)cc5)NC(=O)[C@H](Cc5ccncc5)NC(=O)[C@H](Cc5ccc(-c6ccc(C(=O)O)cc6)cc5)NC(=O)[C@@H]34)cc2)cn1
# B11: SEQ ID NO: 55 (peptide)
# peptide: cyclo([Bip(4'-COOH)][4Pal][Phe(4-COOH)]G[Pro(cis-4-F)][Trp(βS-Me,4-F)][Aib]EW[Aib][Ala(pyrimidin-5-yl)]Q[Dab]G[dProc3Bn4Pyr4])
# SMILES: C[C@@H](c1c[nH]c2cccc(F)c12)[C@@H]1NC(=O)[C@@H]2C[C@H](F)CN2C(=O)CNC(=O)[C@H](Cc2ccc(C(=O)O)cc2)NC(=O)[C@H](Cc2ccncc2)NC(=O)[C@H](Cc2ccc(-c3ccc(C(=O)O)cc3)cc2)NC(=O)[C@H]2[C@@H](Cc3ccc(-c4ccncc4)cc3)CCN2C(=O)CNC(=O)[C@H](CCN)NC(=O)[C@H](CCC(N)=O)NC(=O)[C@H](Cc2cncnc2)NC(=O)C(C)(C)NC(=O)[C@H](Cc2c[nH]c3ccccc23)NC(=O)[C@H](CCC(=O)O)NC(=O)C(C)(C)NC1=O
# Target: Recombinant human IL-1β (BioLegend 579404) (human, UniProt P01584 117-269)
# Assay: cell-based or functional assay
row,Binder,MRC5 IC50 [nM]
1,B1,0.021
2,B2,0.022
3,B3,0.039
4,B4,0.018
5,B5,0.018
6,"cyclo([Bip(4'-COOH)][4Pal][Phe(4-COOH)]G[Pro(cis-4-F)][Trp(βS-Me,4-F)][Aib]EW[Aib][Ala(pyrimidin-5-yl)]Q[Dab]G[dPro(3S-(4-Br-benzyl))]) [SEQ ID NO: 51]",0.014
7,B6,0.037
8,B7,0.044
9,B8,0.047
10,B9,0.019
11,B10,0.021
12,B11,0.024
